Reference: the supplement of paper PMC10567573

B1: SAT2 (parent)
chain: IIKKVAEVALDKGCSQFRLAVLDW

Variants of: B1
Test: protein stability index of a GFP-peptide fusion (GPS, HEK-293T) (PSI 1-6); higher = more stable
Conditions: c terminus: a fixed tail appended
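Also: lentivirally expressed fusions sorted by FACS into six bins by GFP to DsRed ratio, PSI derived from sequencing read proportions per bin multiplied by bin number.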

Row | Variant | protein stability index
1 | SIKKVAEVALDKGCSQFRLAVLDW | 2.28
2 | TIKKVAEVALDKGCSQFRLAVLDW | 1.86
3 | DIKKVAEVALDKGCSQFRLAVLDW | 2.44
4 | KIKKVAEVALDKGCSQFRLAVLDW | 2.02
5 | NIKKVAEVALDKGCSQFRLAVLDW | 1.38
6 | QIKKVAEVALDKGCSQFRLAVLDW | 2.23
7 | HIKKVAEVALDKGCSQFRLAVLDW | 2.14
8 | CIKKVAEVALDKGCSQFRLAVLDW | 2.94
9 | IIKKNAEVALDKGCSQFRLAVLDW | 3.44
10 | IIKKAAEVALDKGCSQFRLAVLDW | 3.31
11 | IIKKYAEVALDKGCSQFRLAVLDW | 1.04
12 | IIKKFAEVALDKGCSQFRLAVLDW | 3.49
13 | IIKKDAEVALDKGCSQFRLAVLDW | 1.52
14 | IIKKGAEVALDKGCSQFRLAVLDW | 3.27
15 | IIKKVAEVALDGGCSQFRLAVLDW | 3.51
16 | IIKKVAEVALDMGCSQFRLAVLDW | 2.73
17 | IIKKVAEVALDCGCSQFRLAVLDW | 3.59
18 | IIKKVAEVALDWGCSQFRLAVLDW | 4.21
19 | IIRKVAEVALDKGCSQFRLAVLDW | 2.37
20 | IIPKVAEVALDKGCSQFRLAVLDW | 1.86
21 | IIKKVAEVALDKGNSQFRLAVLDW | 4.56
22 | IIKKVAEVALDKGYSQFRLAVLDW | 2.62
23 | IIKKVAEVALDKGDSQFRLAVLDW | 2.61
24 | IIKKVAEVALDKGSSQFRLAVLDW | 2.97

Row | Variant | protein stability index
25 | IIKKVAEVALDKDCSQFRLAVLDW | 2.79
26 | IIKKVAEVALDKICSQFRLAVLDW | 2.37
27 | IIKKVAEVALDKCCSQFRLAVLDW | 2.45
28 | IIKKVQEVALDKGCSQFRLAVLDW | 1.15
29 | IIKKVNEVALDKGCSQFRLAVLDW | 2.71
30 | IIKKVEEVALDKGCSQFRLAVLDW | 2.19
31 | IIKKVAEVALDKGCSQFRLAHLDW | 2.52
32 | IIKKVAEVALDKGCSQFRLAGLDW | 3.79
33 | IIKKVAEVALDKGCSQFRLATLDW | 1.78
34 | IIKKVAEVALDKGCSQFRLALLDW | 4.52
35 | IIKKVAEVALDKGCSQFRLANLDW | 1.51
36 | IIKKVAEVALDKGCSQFRLAWLDW | 3.21
37 | IIKKVAEVALDKGCSQFRLAKLDW | 1.87
38 | IIKKVAEVALDKGCSQFRLAQLDW | 1.04
39 | IIKKVAEVAHDKGCSQFRLAVLDW | 1.99
40 | IIKKVAEVATDKGCSQFRLAVLDW | 3.02
41 | IIKKVAEVADDKGCSQFRLAVLDW | 1.75
42 | IIKKVAEVAMDKGCSQFRLAVLDW | 4.14
43 | IIKKVAEVACDKGCSQFRLAVLDW | 3.52
44 | IIKKVAEVASDKGCSQFRLAVLDW | 1.05
45 | IIKKVAEVANDKGCSQFRLAVLDW | 1.17
46 | IPKKVAEVALDKGCSQFRLAVLDW | 1.03
47 | IFKKVAEVALDKGCSQFRLAVLDW | 3.61
48 | IDKKVAEVALDKGCSQFRLAVLDW | 1.74

Row | Variant | protein stability index
49 | IKKKVAEVALDKGCSQFRLAVLDW | 2.16
50 | IGKKVAEVALDKGCSQFRLAVLDW | 1.48
51 | INKKVAEVALDKGCSQFRLAVLDW | 2.16
52 | IWKKVAEVALDKGCSQFRLAVLDW | 1.81
53 | IMKKVAEVALDKGCSQFRLAVLDW | 1.32
54 | IHKKVAEVALDKGCSQFRLAVLDW | 1.33
55 | ISKKVAEVALDKGCSQFRLAVLDW | 1.98
56 | IIKKVAEVALDKGCLQFRLAVLDW | 3.77
57 | IIKKVAEVALDKGCQQFRLAVLDW | 1.56
58 | IIKKVAEVALDKGCWQFRLAVLDW | 1.79
59 | IIKKVAEVALDKGCDQFRLAVLDW | 2.74
60 | IIKKVAEVALDKGCYQFRLAVLDW | 3.27
61 | IIKKVAEVFLDKGCSQFRLAVLDW | 2.31
62 | IIKKVAEVNLDKGCSQFRLAVLDW | 2.8
63 | IIKKVAEVMLDKGCSQFRLAVLDW | 2.39
64 | IIKKVAEVILDKGCSQFRLAVLDW | 2.87
65 | IIKKVAEVALDKGCSEFRLAVLDW | 3.74
66 | IIKKVAEVALDKGCSFFRLAVLDW | 4.68
67 | IIKKVAEVALDKGCSWFRLAVLDW | 1.51
68 | IIKKVALVALDKGCSQFRLAVLDW | 2.75
69 | IIKKVAPVALDKGCSQFRLAVLDW | 2.75
70 | IIKKVAYVALDKGCSQFRLAVLDW | 2.64
71 | IIKKVATVALDKGCSQFRLAVLDW | 2.79
72 | IIKKVAMVALDKGCSQFRLAVLDW | 1.78

Row | Variant | protein stability index
73 | IIKKVAIVALDKGCSQFRLAVLDW | 1.52
74 | IIKKVANVALDKGCSQFRLAVLDW | 2.35
75 | IIKKVAEVALQKGCSQFRLAVLDW | 2.15
76 | IIKKVAEVALLKGCSQFRLAVLDW | 1.19
77 | IIKKVAEVALFKGCSQFRLAVLDW | 3.5
78 | IIKKVAEVALYKGCSQFRLAVLDW | 2.01
79 | IIKKVAEVALPKGCSQFRLAVLDW | 4.36
80 | IIKKVAEVALDKGCSQFRHAVLDW | 3.62
81 | IIKKVAEVALDKGCSQFRYAVLDW | 2.61
82 | IIKKVAEVALDKGCSQFRVAVLDW | 3.77
83 | IIKKVAEVALDKGCSQFRNAVLDW | 2.69
84 | IIKKVAEVALDKGCSQFRRAVLDW | 2.5
85 | IIKKVAEVALDKGCSQFRAAVLDW | 1.61
86 | IIKKVAEVALDKGCSQFRLPVLDW | 2.01
87 | IIKKVAEVALDKGCSQFRLTVLDW | 2.13
88 | IIKKVAEVALDKGCSQFLLAVLDW | 2.39
89 | IIKKVAEVALDKGCSQFYLAVLDW | 3.6
90 | IIKKVAEVALDKGCSQFSLAVLDW | 3.36
91 | IIKKVAEVALDKGCSQFMLAVLDW | 1.8
92 | IIKKVAEVALDKGCSQFPLAVLDW | 2.17
93 | IIKKVAEVALDKGCSQFRLAVFDW | 1.86
94 | IIKKVAEVALDKGCSQFRLAVDDW | 1.23
